Test results published in PMC8042174.

These binders were tested against FITC-labeled human GRK6A C-terminal 22 amino acid peptide, GRK6Act-22 (human) (assay: fluorescence polarisation; fluorescence anisotropy, direct saturation binding in solution; recombinant protein titrated to fixed FITC-GRK6Act-22 (0.4–1.0 μM); PBS pH 7.4, 0.1% BSA, 1 mM DTT, 23 °C; quadratic fit).

Kd [µM]	Binder
5.3	recombinant full-length NHERF1 (natural protein) MSADAAAGAPLPRLCCLEKGPNGYGFHLHGEKGKLGQYIRLVEPGSPAEKAGLLAGDRLVEVNGENVEKETHQQVVSRIRAALNAVRLLVVDPETDEQLQKLGVQVREELLRAQEAPGQAEPPAAAEVQGAGNENEPREADKSHPEQRELRPRLCTMKKGPSGYGFNLHSDKSKPGQFIRSVDPDSPAEASGLRAQDRIVEVNGVCMEGKQHGDVVSAIRAGGDETKLLVVDRETDEFFKKCRVIPSQEHLNGPLPVPFTNGEIQKENSREALAEAALESPRPALVRSASSDTSEELNSQDSPPKQDSTAPSSTSSSDPILDFNISLAMAKERAHQKRSSKRAPQMDWSKKNELFSNL
> 100	recombinant N1P1-GAGA (natural protein) MSADAAAGAPLPRLCCLEKGPNGAGAHLHGEKGKLGQYIRLVEPGSPAEKAGLLAGDRLVEVNGENVEKETHQQVVSRIRAALNAVRLLVVDPETDEQLQKLGVQVREELLRAQEAPGQAEPPAAAEVQGAGNENEPREADKSHPEQRELRPRLCTMKKGPSGYGFNLHSDKSKPGQFIRSVDPDSPAEASGLRAQDRIVEVNGVCMEGKQHGDVVSAIRAGGDETKLLVVDRETDEFFKKCRVIPSQEHLNGPLPVPFTNGEIQKENSREALAEAALESPRPALVRSASSDTSEELNSQDSPPKQDSTAPSSTSSSDPILDFNISLAMAKERAHQKRSSKRAPQMDWSKKNELFSNL
3.6	recombinant N1P2-GAGA (natural protein) MSADAAAGAPLPRLCCLEKGPNGYGFHLHGEKGKLGQYIRLVEPGSPAEKAGLLAGDRLVEVNGENVEKETHQQVVSRIRAALNAVRLLVVDPETDEQLQKLGVQVREELLRAQEAPGQAEPPAAAEVQGAGNENEPREADKSHPEQRELRPRLCTMKKGPSGAGANLHSDKSKPGQFIRSVDPDSPAEASGLRAQDRIVEVNGVCMEGKQHGDVVSAIRAGGDETKLLVVDRETDEFFKKCRVIPSQEHLNGPLPVPFTNGEIQKENSREALAEAALESPRPALVRSASSDTSEELNSQDSPPKQDSTAPSSTSSSDPILDFNISLAMAKERAHQKRSSKRAPQMDWSKKNELFSNL
26.1	pSer162-PDZ2 (133–300 aa) (domain or fragment, phosphoserine at 162) NENEPREADKSHPEQRELRPRLCTMKKGPSGYGFNLHSDKSKPGQFIRSVDPDSPAEASGLRAQDRIVEVNGVCMEGKQHGDVVSAIRAGGDETKLLVVDRETDEFFKKCRVIPSQEHLNGPLPVPFTNGEIQKENSREALAEAALESPRPALVRSASSDTSEELNSQ
51.3	WT PDZ2 domain (133–300 aa) of NHERF1 (domain or fragment) NENEPREADKSHPEQRELRPRLCTMKKGPSGYGFNLHSDKSKPGQFIRSVDPDSPAEASGLRAQDRIVEVNGVCMEGKQHGDVVSAIRAGGDETKLLVVDRETDEFFKKCRVIPSQEHLNGPLPVPFTNGEIQKENSREALAEAALESPRPALVRSASSDTSEELNSQ
43.4	S162A-PDZ2 (133–300 aa) (domain or fragment) NENEPREADKSHPEQRELRPRLCTMKKGPAGYGFNLHSDKSKPGQFIRSVDPDSPAEASGLRAQDRIVEVNGVCMEGKQHGDVVSAIRAGGDETKLLVVDRETDEFFKKCRVIPSQEHLNGPLPVPFTNGEIQKENSREALAEAALESPRPALVRSASSDTSEELNSQ

These binders were tested against FITC-labeled human GRK6A C-terminal 22 amino acid peptide, GRK6Act-22 (human) (assay: fluorescence polarisation; fluorescence anisotropy saturation binding in solution; increasing amounts of recombinant protein added to a fixed concentration of FITC-labeled GRK6Act-22 (0.4-1.0 uM); PBS pH 7.4, 0.1% BSA, 1 mM DTT; 23 °C; 96-well format; quadratic fit).

Kd [µM]	Binder
6.6	NHERF1 PDZ1 domain (1-140 aa), isolated (domain or fragment) MSADAAAGAPLPRLCCLEKGPNGYGFHLHGEKGKLGQYIRLVEPGSPAEKAGLLAGDRLVEVNGENVEKETHQQVVSRIRAALNAVRLLVVDPETDEQLQKLGVQVREELLRAQEAPGQAEPPAAAEVQGAGNENEPREA
